Results published in the supplement of paper PMC5998384.

Assays:
HeLa Kyoto [1] = experiment: thermal stability score vs G1/S (z-score of summed log2 fold changes over temperatures); higher = more thermally stable than in G1/S
HeLa Kyoto [2] = experiment: melting temperature (median over replicates), in situ; higher = more thermally stable
[3] = cell cycle stage: early G1 (4.5 h after nocodazole release)
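For melting temperature (median over replicates), in situ in this document: HeLa Kyoto cells synchronized by double thymidine or nocodazole block, proteins quantified by TMT10plex mass spectrometry, three independent biological replicates.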
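For thermal stability score vs G1/S (z-score of summed log2 fold changes over temperatures) in this document: synchronized HeLa Kyoto cells, proteins quantified by TMT10plex mass spectrometry, three biological replicates, mitosis taken 0.5 h after nocodazole release, G1/S directly after double thymidine block.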

Row | Sequence | thermal stability score (HeLa Kyoto [1]; [3]) | thermal stability score (HeLa Kyoto [1]; cell cycle stage: mitosis) | melting temperature (HeLa Kyoto [2]; cell cycle stage: mitosis) | melting temperature (HeLa Kyoto [2]; cell cycle stage: G1/S)
1 | MAASGPGCRSWCLCPEVPSATFFTALLSLLVSGPRLFLLQQPLAPSGLTLKSEALRNWQVYRLVTYIFVYENPISLLCGAIIIWRFAGNFERTVGTVRHCFFTVIFAIFSAIIFLSFEAVSSLSKLGEVEDARGFTPVAFAMLGVTTVRSRMRRALVFGMVVPSVLVPWLLLGASWLIPQTSFLSNVCGLSIGLAYGLTYCYSIDLSERVALKLDQTFPFSLMRRISVFKYVSGSSAERRAAQSRKLNPVPGSYPTQSCHPHLSPSHPVSQTQHASGQKLASWPSCTPGHMPTLPPYQPASGLCYVQNHFGPNPTSSSVYPASAGTSLGIQPPTPVNSPGTVYSGALGTPGAAGSKESSRVPMP [RHBDD2] | -1.05 | -1.48 | 52.5 °C | –
2 | MAFLGLFSLLVLQSMATGATFPEEAIADLSVNMYNRLRATGEDENILFSPLSIALAMGMMELGAQGSTQKEIRHSMGYDSLKNGEEFSFLKEFSNMVTAKESQYVMKIANSLFVQNGFHVNEEFLQMMKKYFNAAVNHVDFSQNVAVANYINKWVENNTNNLVKDLVSPRDFDAATYLALINAVYFKGNWKSQFRPENTRTFSFTKDDESEVQIPMMYQQGEFYYGEFSDGSNEAGGIYQVLEIPYEGDEISMMLVLSRQEVPLATLEPLVKAQLVEEWANSVKKQKVEVYLPRFTVEQEIDLKDVLKALGITEIFIKDANLTGLSDNKEIFLSKAIHKSFLEVNEEGSEAAAVSGMIAISRMAVLYPQVIVDHPFFFLIRNRRTGTILFMGRVMHPETMNTSGHDFEEL [SERPINI1] | 0.548 | 1.27 | 57.8 °C | 57 °C
3 | MAMWNRPCQRLPQQPLVAEPTAEGEPHLPTGRELTEANRFAYAALCGISLSQLFPEPEHSSFCTEFMAGLVQWLELSEAVLPTMTAFASGLGGEGADVFVQILLKDPILKDDPTVITQDLLSFSLKDGHYDARARVLVCHMTSLLQVPLEELDVLEEMFLESLKEIKEEESEMAEASRKKKENRRKWKRYLLIGLATVGGGTVIGVTGGLAAPLVAAGAATIIGSAGAAALGSAAGIAIMTSLFGAAGAGLTGYKMKKRVGAIEEFTFLPLTEGRQLHITIAVTGWLASGKYRTFSAPWAALAHSREQYCLAWEAKYLMELGNALETILSGLANMVAQEALKYTVLSGIVAALTWPASLLSVANVIDNPWGVCLHRSAEVGKHLAHILLSRQQGRRPVTLIGFSLGARVIYFCLQEMAQEKDCQGIIEDVILLGAPVEGEAKHWEPFRKVVSGRIINGYCRGDWLLSFVYRTSSVQLRVAGLQPVLLQDRRVENVDLTSVVSGHLDYAKQMDAILKAVGIRTKPGWDEKGLLLAPGCLPSEEPRQAAAAASSGETPHQVGQTQGPISGDTSKLAMSTDPSQAQVPVGLDQSEGASLPAAASPERPPICSHGMDPNPLGCPDCACKTQGPSTGLD [TMCO4] | -0.364 | 0.512 | 53.7 °C | –
4 | MAVAAAAAAGPVFWRRLLGLLPGRPGLAALLGRLSDRLGRNRDRQRRRSPWLLLAPLLSPAVPQVTSPPCCLCPEGVHRFQWIRNLVPEFGVSSSHVRVLSSPAEFFELMKGQIRVAKRRVVMASLYLGTGPLEQELVDCLESTLEKSLQAKFPSNLKVSILLDFTRGSRGRKNSRTMLLPLLRRFPEQVRVSLFHTPHLRGLLRLLIPERFNETIGLQHIKVYLFDNSVILSGANLSDSYFTNRQDRYVFLQDCAEIADFFTELVDAVGDVSLQLQGDDTVQVVDGMVHPYKGDRAEYCKAANKRVMDVINSARTRQQMLHAQTFHSNSLLTQEDAAAAGDRRPAPDTWIYPLIQMKPFEIQIDEIVTETLLTEAERGAKVYLTTGYFNLTQAYMDLVLGTRAEYQILLASPEVNGFFGAKGVAGAIPAAYVHIERQFFSEVCSLGQQERVQLQEYWRRGWTFHAKGLWLYLAGSSLPCLTLIGSPNFGYRSVHRDLEAQIAIVTENQALQQQLHQEQEQLYLRSGVVSSATFEQPSRQVKLWVKMVTPLIKNFF [PGS1] | 0.0742 | -0.577 | 53.2 °C | 53.2 °C
5 | MEHFDASLSTYFKALLGPRDTRVKGWFLLDNYIPTFICSVIYLLIVWLGPKYMRNKQPFSCRGILVVYNLGLTLLSLYMFCELVTGVWEGKYNFFCQGTRTAGESDMKIIRVLWWYYFSKLIEFMDTFFFILRKNNHQITVLHVYHHASMLNIWWFVMNWVPCGHSYFGATLNSFIHVLMYSYYGLSSVPSMRPYLWWKKYITQGQLLQFVLTIIQTSCGVIWPCTFPLGWLYFQIGYMISLIALFTNFYIQTYNKKGASRRKDHLKDHQNGSMAAVNGHTNSFSPLENNVKPRKLRKD [ELOVL5] | -0.682 | -0.967 | 53.7 °C | 53.3 °C
6 | MGKVWKQQMYPQYATYYYPQYLQAKQSLVPAHPMAPPSPSTTSSNNNSSSSSNSGWDQLSKTNLYIRGLPPHTTDQDLVKLCQPYGKIVSTKAILDKTTNKCKGYGFVDFDSPAAAQKAVSALKASGVQAQMAKQQEQDPTNLYISNLPLSMDEQELENMLKPFGQVISTRILRDSSGTSRGVGFARMESTEKCEAVIGHFNGKFIKTPPGVSAPTEPLLCKFADGGQKKRQNPNKYIPNGRPWHREGEVRLAGMTLTYDPTTAAIQNGFYPSPYSIATNRMITQTSITPYIASPVSAYQVQSPSWMQPQPYILQHPGAVLTPSMEHTMSLQPASMISPLAQQMSHLSLGSTGTYMPATSAMQGAYLPQYAHMQTTAVPVEEASGQQQVAVETSNDHSPYTFQPNK [RBMS1] | -0.758 | -1.24 | 52.4 °C | 53.4 °C
7 | MISLTDTQKIGMGLTGFGVFFLFFGMILFFDKALLAIGNVLFVAGLAFVIGLERTFRFFFQKHKMKATGFFLGGVFVVLIGWPLIGMIFEIYGFFLLFRGFFPVVVGFIRRVPVLGSLLNLPGIRSFVDKVGESNNMV [GOLT1B] | -3.12 | -4.7 | 54.6 °C | 59 °C
8 | MKSVIYHALSQKEANDSDVQPSGAQRAEAFVRAFLKRSTPRMSPQAREDQLQRKAVVLEYFTRHKRKEKKKKAKGLSARQRRELRLFDIKPEQQRYSLFLPLHELWKQYIRDLCSGLKPDTQPQMIQAKLLKADLHGAIISVTKSKCPSYVGITGILLQETKHIFKIITKEDRLKVIPKLNCVFTVETDGFISYIYGSKFQLRSSERSAKKFKAKGTIDL [POP4] | -1.07 | -2.15 | – | 52.4 °C
